Patent US11434506B2, “Production of desaturated fatty alcohols and desaturated fatty alcohol acetates in yeast” (Danmarks Tekniske Universitet, priority 2016, dated 2022)

Columns and labels:
fall armyworm = details: applied alone, without other pheromone components; cited from earlier work
C14-CoA substrate = assay: activity and specificity of heterologous desaturases in yeast fed methyl myristate, FAMEs by GC-MS; assay type: cell-based, S. cerevisiae; details: among the tested desaturases
[1] = production of (Z)-9-tetradecen-1-yl acetate by S. cerevisiae CEN.PK102-5B strains, GC-MS; details: overexpression of desaturase, ST5290 versus ST4854
Method: The strains for production of pheromone were created on the basis of S. cerevisiae CEN.PK102-5B, which had active OLE1 and ELO1 genes.
Strains ST4854 and ST5290 were inoculated into 5 ml synthetic complete medium (lacking histidine, leucine, tryptophan supplemented with 20 mg/L uracil and 76 mg/L histidine) and cultivated in 12-ml glass tubes (Duran, Wertheim, Germany) with metal labocap lids (Lüdiswiss, Flawil, Switzerland) overnight at 30° C. with shaking at 250 rpm. The following day the overnight culture was centrifuged, the supernatant was discarded and the pellet was resuspended in 2 ml of mineral medium, which had the composition as described in (Jensen et al, 2014). The medium was supplemented with 76 mg/L histidine and 20 mg/L uracil. The cultures were incubated at 30° C. with shaking at 250 rpm for 48 hours.
1 mL sample of culture was transferred into a 4-mL glass vial and 10 μL of internal standard stock (1 μg/μl (Z)10-heptan-1-yl methyl ester in 100% ethanol) was added. The vials were covered with small pieces of aluminum foil and we used a needle to pierce small holes in the foil covers. The samples were vortexed and placed at −80° C. for storage until analysis. […] The concentration of (Z)-9-tetradecen-1-yl acetate was calculated based on internal standard.

CCCC/C=C\CCCCCCCCOC(C)=O [(Z)19-14:OAc, (Z)9-tetradecen-1-yl acetate]
disruption of mating efficiency (fall armyworm): 86%

B1: D. melanogaster desaturase: Δ9 desaturase from Drosophila melanogaster Dmd9, SEQ ID NO: 10 (protein)
chain: MAPYSRIYHQDKSSRETGVLFEDDAQTVDSDLTTDRFQLKRAEKRRLPLVWRNIILFALVHLAALYGLHSIFTRAKLATTLFAAGLYIIGMLGVTAGAHRLWAHRTYKAKWPLRLLLVIFNTIAFQDAVYHWARDHRVHHKYSETDADPHNATRGFFFSHVGWLLCKKHPDIKEKGRGLDLSDLRADPILMFQRKHYYILMPLACFVLPTVIPMVYWNETLASSWFVATMFRWCFQLNMTWLVNSAAHKFGNRPYDKTMNPTQNAFVSAFTFGEGWHNYHHAFPWDYKTAEWGCYSLNITTAFIDLFAKIGWAYDLKTVAPDVIQRRVLRTGDGSHELWGWGDKDLTAEDARNVLLVDKSR
modifications: Drosophila melanogaster
activity and specificity towards C14-CoA substrate (C14-CoA substrate): highest activity and specificity
increase of titer of Z9:14:OAc [1]: more than 5 fold
